Experimental findings from patent publication US20220227882A1 (TRUSTEES OF TUFTS COLLEGE, published 2022) are described below.

Substitutions are numbered along the chain they refer to.

For one assay, the target named is T1, K458A (Homo sapiens, UniProt P78325).
T1 construct: expressed on HEK293 cells; also called human ADAM8 point mutant K458A
T1 sequence (ADAM8, looked up): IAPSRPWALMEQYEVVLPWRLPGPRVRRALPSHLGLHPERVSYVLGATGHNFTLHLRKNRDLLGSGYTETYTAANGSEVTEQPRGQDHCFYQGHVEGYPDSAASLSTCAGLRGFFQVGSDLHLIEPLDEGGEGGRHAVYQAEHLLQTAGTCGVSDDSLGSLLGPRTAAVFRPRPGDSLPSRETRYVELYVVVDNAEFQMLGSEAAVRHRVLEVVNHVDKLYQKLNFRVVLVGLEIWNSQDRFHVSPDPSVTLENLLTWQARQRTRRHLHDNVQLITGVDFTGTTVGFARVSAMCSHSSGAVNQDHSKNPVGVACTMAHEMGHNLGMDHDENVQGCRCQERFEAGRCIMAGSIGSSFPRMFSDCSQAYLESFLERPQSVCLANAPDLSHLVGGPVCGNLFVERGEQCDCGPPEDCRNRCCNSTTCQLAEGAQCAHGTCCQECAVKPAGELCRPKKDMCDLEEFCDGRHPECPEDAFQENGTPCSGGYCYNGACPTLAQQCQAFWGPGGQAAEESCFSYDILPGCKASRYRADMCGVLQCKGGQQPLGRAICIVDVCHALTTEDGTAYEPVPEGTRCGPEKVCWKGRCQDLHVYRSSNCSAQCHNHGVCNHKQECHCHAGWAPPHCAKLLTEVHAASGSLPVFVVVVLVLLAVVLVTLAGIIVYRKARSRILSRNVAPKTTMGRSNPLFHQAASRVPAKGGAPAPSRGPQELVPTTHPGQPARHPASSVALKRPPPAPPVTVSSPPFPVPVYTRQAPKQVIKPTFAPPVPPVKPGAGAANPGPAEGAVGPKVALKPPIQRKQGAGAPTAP
The assay is described as follows: high-throughput flow cytometry, HEK293 cells with mutant ADAM8, high stringency; range in parentheses; dotted box. How it is done:
(§1) A variety of experimental parameters were optimized for high-throughput flow cytometry including blocking buffer, and primary and secondary antibody concentrations, to identify the optimal conditions for screening. Through these studies ADP2 and ADP13 were determined to be high affinity binding antibodies.
(§2) Thus, for these studies antigen-binding fragments (Fabs) of ADP2 and ADP13, which bind with lower affinity than the full antibody, were generated. In addition, higher binding stringency conditions were tested, such as increased pH, salinity, and temperature, and/or increased washing, to weaken binding sufficiently to allow identification of critical binding residues in flow cytometry. The final experimental flow cytometry conditions were: primary antibody incubation with ADP2 Fab (0.50 μg/ml), ADP13 Fab (5.00 μg/ml) and Control Ab (0.16 μg/ml) for 60 minutes in flow cytometry buffer containing 10% goat serum in PBS (Ca²⁺ and Mg²⁺ free). […] Samples were washed three times after primary antibody incubation and twice after secondary antibody incubation with PBS (Ca²⁺ and Mg′ free). Next, HEK293 cells expressing WT or mutated ADAM8 proteins or EV DNA were incubated with ADP2 or ADP13 Fabs or Control Ab at their optimal concentrations. Fab binding was detected using Alexa Fluor 488-conjugated secondary antibodies and mean cellular fluorescence determined using the Intellicyt iQue flow cytometry platform. […] This counter-screen strategy facilitates the exclusion of mutants that are locally misfolded or that have an expression defect. Binding of each test Fab to each mutant clone in the alanine scanning library was determined, in duplicate, by high-throughput flow cytometry.
For orientation: In flow cytometry, cells or beads pass a laser one at a time.

Another assay concerns the target T2, V459A (Homo sapiens, UniProt P78325).
T2 construct: expressed on HEK293 cells; also called human ADAM8 point mutant V459A
T2 sequence (ADAM8, looked up): T1 sequence (ADAM8, looked up) with A442K, V443A
The description is as above. On the procedure:
as §1, §2

B1: ADP2 Fab (Fab, V domains shown)
VH: EVKLVESGGGLVQPGGSLSLSCAASGFSFPDYYMSWVRQPPGKALEWLGFIRDSANGYTTEYIASVKGRFTFSRDNSQSILYLQMNALRAEDSATYYCARYSRYYGMDYWGQGTSVTVSS
VL: SIVMTQTPKILLVSAGDRVTITCKASQTVNYDVAWYQQKPGQSPKPVIYFASNRYTGVPDRFTGSGFGTDFTFTISTVQAEDLAVYFCQQDYSAPWTFGGGTKLEIK
Consider B1, for which the “Binding Reactivity (% WT)” value with K458A is 28 % WT.

B2: ADP13 Fab (Fab, V domains shown)
VH: EVQLQQSGPEMVKPGTSVKISCKASGYTFTDYYINWVKQSHGKSLEWIGDISPNIGGATYNPKFKGKAILTVDKSARTAYMELRSLTSEDSAVYCCTRGGSSYPYFYAMDYWGQGTSVTVSS
VL: DIVMSQSPSSLAVSVGEKVTMSCKSSQSLLYSSNQKKYLAWYQQKPGQSPKLLIYWASTRESGVPDRFTGSGSGTDFTLTISSVKAEDLAVYYCQQFYSYPYTFGGGTKLEINR
For the molecule B2, the “Binding Reactivity (% WT)” value with V459A amounted to 27.8 % WT.
